Test results from patent US20070135335A1 (AUTOGEN RESEARCH, published 2007).

Assays:
[1] = target: maltose binding protein (UniProt P0AEX9 27-396 = MBP); experiment: SPR (Biacore J), Beacon immobilised on CM5 chip
Method: (§1) SPR analyses were performed with minor variations as described in Walder et al., 2002, supra using a Biacore J instrument (Biacore AB). Beacon was attached to a CM5 sensor chip at pH 5.5 by an amine coupling reaction. HBS-EP (10 mM Hepes pH 7.4/0.15 M NaCl/3 mM EDTA/0.005% Polysorbate 20) was used as running buffer. Flow cells 1 and 2 in the sensor chip were treated in the same manner except that ligand was absent in flow cell 2 which served as a reference cell. Binding experiments were performed in dual channel mode and the reference subtracted sensorgrams represented true binding patterns between ligand and analyte. Test samples diluted to 130 μl in running buffer were injected over a fixed duration of 4 min. For heat treatments, proteins were initially diluted to 20 μl in running buffer, incubated at 65 or 70° C. for 10 min, centrifuged for 30 sec, reconstituted to a final volume of 130 μl with running buffer and injected as usual. Between injections, chips were regenerated using 40 μl of 10 mM NaOH.

[2] = target: the molecule itself; experiment: SPR (Biacore J), Beacon immobilised on CM5 chip
Method: as §1

[3] = target: T1, bovine serum albumin (bovine, UniProt P02769 25-607); experiment: SPR (Biacore J), Beacon immobilised on CM5 chip
T1 construct: Unrelated control protein in SPR
T1 sequence (P02769 25-607 limits assumed): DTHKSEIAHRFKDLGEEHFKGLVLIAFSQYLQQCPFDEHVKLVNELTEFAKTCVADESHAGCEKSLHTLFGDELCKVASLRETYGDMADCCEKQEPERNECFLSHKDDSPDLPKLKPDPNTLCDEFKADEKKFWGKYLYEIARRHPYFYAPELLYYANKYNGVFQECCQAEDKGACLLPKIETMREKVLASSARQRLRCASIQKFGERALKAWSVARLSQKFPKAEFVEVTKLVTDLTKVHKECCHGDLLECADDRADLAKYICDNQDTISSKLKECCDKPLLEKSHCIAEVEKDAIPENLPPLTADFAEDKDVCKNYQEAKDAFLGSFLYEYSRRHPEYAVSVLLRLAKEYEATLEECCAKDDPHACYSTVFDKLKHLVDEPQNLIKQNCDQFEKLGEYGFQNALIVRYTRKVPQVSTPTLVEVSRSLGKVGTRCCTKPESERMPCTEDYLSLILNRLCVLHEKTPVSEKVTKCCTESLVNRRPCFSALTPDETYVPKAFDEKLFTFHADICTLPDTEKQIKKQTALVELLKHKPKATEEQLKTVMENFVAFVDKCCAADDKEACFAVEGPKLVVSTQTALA
Method: as §1

[4] = target: T2, GST (recombinant glutathione S-transferase, pGEX2T) (UniProt P08515 1-218 = GST); experiment: SPR (Biacore J), Beacon immobilised on CM5 chip
T2 construct: Control protein in SPR
T2 sequence (P08515 whole entry): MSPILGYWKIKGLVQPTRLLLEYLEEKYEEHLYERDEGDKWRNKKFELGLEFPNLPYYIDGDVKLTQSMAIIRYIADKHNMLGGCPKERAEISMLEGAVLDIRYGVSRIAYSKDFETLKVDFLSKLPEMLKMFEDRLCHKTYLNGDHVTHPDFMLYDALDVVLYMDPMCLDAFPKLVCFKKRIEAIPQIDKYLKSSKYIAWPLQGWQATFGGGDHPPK
Method: as §1

[5] = target: T3, GST-CLK2 (recombinant human CLK2 fused to glutathione S-transferase, pGEX4T-1) (human, UniProt P49760 1-499); experiment: SPR (Biacore J), Beacon immobilised on CM5 chip, GST-CLK as analyte
T3 construct: Expressed in E. coli BL21; whole entry named; not shown: glutathione S-transferase tag of expression vector pGEX4T-1
T3 sequence (P49760 whole entry, the tested form may be a part): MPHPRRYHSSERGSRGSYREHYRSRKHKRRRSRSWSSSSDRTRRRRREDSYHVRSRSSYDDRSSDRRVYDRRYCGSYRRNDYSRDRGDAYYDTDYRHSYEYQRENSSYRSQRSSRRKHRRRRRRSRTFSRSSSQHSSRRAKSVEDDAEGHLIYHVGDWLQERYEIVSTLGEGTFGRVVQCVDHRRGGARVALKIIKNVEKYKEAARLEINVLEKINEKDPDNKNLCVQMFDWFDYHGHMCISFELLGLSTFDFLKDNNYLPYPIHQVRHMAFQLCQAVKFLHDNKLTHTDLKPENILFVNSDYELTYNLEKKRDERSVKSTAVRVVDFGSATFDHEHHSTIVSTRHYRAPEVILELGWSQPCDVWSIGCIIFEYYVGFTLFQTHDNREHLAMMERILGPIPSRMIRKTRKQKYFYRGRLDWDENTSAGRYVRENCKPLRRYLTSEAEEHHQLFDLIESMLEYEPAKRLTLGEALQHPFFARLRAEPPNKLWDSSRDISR
Method: (§2) FIG. 3 is a graphical representation showing the interaction between Beacon and human CLK1, 2 and 4. SPR analyses were performed as described in the Examples. Beacon immobilized on CM5 sensor chip generated 1800-2100 RU. Analyte samples injected and the heat treatments are as listed here:—
as §1

[6] = target: T4, GST-CLK1 (recombinant human CLK1 fused to glutathione S-transferase, pGEX4T-1) (human, UniProt P49759 1-484); experiment: as above
T4 construct: Expressed in E. coli BL21; whole entry named; not shown: glutathione S-transferase tag of expression vector pGEX4T-1
T4 sequence (P49759 whole entry, the tested form may be a part): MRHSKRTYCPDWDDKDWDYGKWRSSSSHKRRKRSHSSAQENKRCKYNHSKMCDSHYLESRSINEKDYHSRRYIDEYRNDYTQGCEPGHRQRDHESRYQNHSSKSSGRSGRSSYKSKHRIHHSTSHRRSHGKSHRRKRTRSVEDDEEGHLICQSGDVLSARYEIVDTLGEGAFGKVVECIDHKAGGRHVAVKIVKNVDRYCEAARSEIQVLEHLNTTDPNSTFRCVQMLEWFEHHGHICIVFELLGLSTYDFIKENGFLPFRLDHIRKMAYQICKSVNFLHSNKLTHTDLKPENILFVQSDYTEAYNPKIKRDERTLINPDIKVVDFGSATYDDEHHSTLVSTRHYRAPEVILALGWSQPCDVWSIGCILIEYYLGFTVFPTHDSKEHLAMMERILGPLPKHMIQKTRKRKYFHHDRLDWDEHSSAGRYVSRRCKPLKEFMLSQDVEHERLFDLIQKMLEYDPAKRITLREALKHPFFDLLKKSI
Method: as §2, §1

[7] = target: T5, GST-CLK4 (recombinant human CLK4 fused to glutathione S-transferase, pGEX4T-1) (human, UniProt Q9HAZ1 1-481); experiment: as above
T5 construct: Expressed in E. coli BL21; whole entry named; not shown: glutathione S-transferase tag of expression vector pGEX4T-1
T5 sequence (Q9HAZ1 whole entry, the tested form may be a part): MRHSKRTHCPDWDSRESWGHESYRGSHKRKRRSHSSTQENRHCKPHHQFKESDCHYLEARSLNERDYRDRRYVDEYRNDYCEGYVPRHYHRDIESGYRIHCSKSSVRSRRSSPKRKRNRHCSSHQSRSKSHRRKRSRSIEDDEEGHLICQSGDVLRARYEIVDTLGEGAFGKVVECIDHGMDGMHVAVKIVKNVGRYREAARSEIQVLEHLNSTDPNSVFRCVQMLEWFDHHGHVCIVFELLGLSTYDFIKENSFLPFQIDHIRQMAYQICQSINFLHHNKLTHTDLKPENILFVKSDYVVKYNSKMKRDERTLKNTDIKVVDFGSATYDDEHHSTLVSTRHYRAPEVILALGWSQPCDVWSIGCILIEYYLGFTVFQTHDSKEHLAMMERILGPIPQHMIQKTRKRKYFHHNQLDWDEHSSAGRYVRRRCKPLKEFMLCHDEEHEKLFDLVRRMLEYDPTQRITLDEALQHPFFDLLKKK
Method: as §2, §1

- binding result [1]: no binding
- binding result [3]: no binding
- binding result [4]: no binding
- binding result [5]: binds
- binding result [6]: binds
- binding result [7]: binds
B1: Beacon (recombinant, expressed as GST-Beacon in E. coli, GST tag cleaved off with thrombin) (ligand)
chain: MIEVVCNDRLGKKVRVKCNTDDTIGDLKKLIAAQTGTRWNKIVLKKWYTIFKDHVSLGDYEIHDGMNLELYYQ
notes: Immobilised on a CM5 chip by amine coupling (SPR); also injected as analyte over itself
- binding result [2]: no binding
